Experimental findings from patent US20110212094A1 (AbbVie / Abbott, published 2011) are described below.

In assay [1] the target is NGF (Neuroscreen-1 bioassay). Description: cell-based or functional assay.
For assay [2], the target named is T1, Recombinant Human TNF-α/TNFSF1A (human, UniProt P01375 77-233). The assay is described as follows: cell-based or functional assay.
In assay [3] the target is T2, Recombinant Human β-NGF (human, UniProt P01138 122-239, limits assumed).
T2 construct: Bought reagent used in the Biacore analyses
T2 sequence (P01138 122-239 limits assumed): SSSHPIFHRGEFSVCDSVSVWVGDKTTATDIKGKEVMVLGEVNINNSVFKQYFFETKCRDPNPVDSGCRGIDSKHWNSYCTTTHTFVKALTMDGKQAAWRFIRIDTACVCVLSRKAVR
The assay is described as follows: Biacore SPR. How it is done:
(§1) The BIACORE assay (Biacore, Inc, Piscataway, N.J.) determines the affinity of antibodies or DVD-Ig with kinetic measurements of on-rate and off-rate constants. Binding of antibodies or DVD-Ig to a target antigen (for example, a purified recombinant target antigen) is determined by surface plasmon resonance-based measurements with a Biacore® 1000 or 3000 instrument (Biacore® AB, Uppsala, Sweden) using running HBS-EP (10 mM HEPES [pH 7.4], 150 mM NaCl, 3 mM EDTA, and 0.005% surfactant P20) at 25° C. All chemicals are obtained from Biacore® AB (Uppsala, Sweden) or otherwise from a different source as described in the text. For example, approximately 5000 RU of goat anti-mouse IgG, (Fcγ), fragment specific polyclonal antibody (Pierce Biotechnology Inc, Rockford, Ill.) diluted in 10 mM sodium acetate (pH 4.5) is directly immobilized across a CM5 research grade biosensor chip using a standard amine coupling kit according to manufacturer's instructions and procedures at 25 μg/ml. Unreacted moieties on the biosensor surface are blocked with ethanolamine. Modified carboxymethyl dextran surface in flowcell 2 and 4 is used as a reaction surface. Unmodified carboxymethyl dextran without goat anti-mouse IgG in flow cell 1 and 3 is used as the reference surface. For kinetic analysis, rate equations derived from the 1:1 Langmuir binding model are fitted simultaneously to association and dissociation phases of all eight injections (using global fit analysis) with the use of Biaevaluation 4.0.1 software. Purified antibodies or DVD-Ig are diluted in HEPES-buffered saline for capture across goat anti-mouse IgG specific reaction surfaces. Antibodies or DVD-Ig to be captured as a ligand (25 μg/ml) are injected over reaction matrices at a flow rate of 5 μl/min. The association and dissociation rate constants, kₘ (M⁻¹s⁻¹) and koff (s⁻¹) are determined under a continuous flow rate of 25 μl/min. Rate constants are derived by making kinetic binding measurements at different antigen concentrations ranging from 10-200 nM. The equilibrium dissociation constant (M) of the reaction between antibodies or DVD-Igs and the target antigen is then calculated from the kinetic rate constants by the following formula: KD=koff/kₒₙ. Binding is recorded as a function of time and kinetic rate constants are calculated.

The target in assay [4] is T1, Recombinant Human TNF-α/TNFSF1A. Description: Biacore SPR. How it is done:
as §1

The target in a further assay is T3, Recombinant Human SOST (human, UniProt Q9BQB4 24-213).
T3 construct: R&D reagent in Biacore; also called sclerostin; Human sclerostin (Abbott PR-1261069)
T3 sequence (looked up): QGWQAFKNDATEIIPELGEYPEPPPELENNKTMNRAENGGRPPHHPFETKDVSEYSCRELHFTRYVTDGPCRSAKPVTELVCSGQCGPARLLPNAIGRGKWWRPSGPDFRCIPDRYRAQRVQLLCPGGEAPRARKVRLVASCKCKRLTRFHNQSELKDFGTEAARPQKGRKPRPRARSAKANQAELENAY
Description: Biacore SPR. How it is done: as §1
(In general: Surface plasmon resonance follows binding to a sensor surface in real time, without labels.)

Assay [5] deals with T2, Recombinant Human β-NGF. Description: Biacore SPR; 25 C, HBS-EP pH 7.4; antibody captured on the chip, antigen 10-200 nM in flow. How it is done:
The BIACORE assay (Biacore, Inc, Piscataway, N.J.) determines the affinity of antibodies or DVD-Ig with kinetic measurements of on-rate and off-rate constants. Binding of antibodies or DVD-Ig to a target antigen (for example, a purified recombinant target antigen) is determined by surface plasmon resonance-based measurements with a Biacore® 1000 or 3000 instrument (Biacore® AB, Uppsala, Sweden) using running HBS-EP (10 mM HEPES [pH 7.4], 150 mM NaCl, 3 mM EDTA, and 0.005% surfactant P20) at 25° C. All chemicals are obtained from Biacore® AB (Uppsala, Sweden) or otherwise from a different source as described in the text. […] The association and dissociation rate constants, kₘ (M⁻¹s⁻¹) and koff (s⁻¹) are determined under a continuous flow rate of 25 μl/min. […] The equilibrium dissociation constant (M) of the reaction between antibodies or DVD-Igs and the target antigen is then calculated from the kinetic rate constants by the following formula: KD=koff/kₒₙ. Binding is recorded as a function of time and kinetic rate constants are calculated.

T1 sequence (P01375 77-233 limits assumed): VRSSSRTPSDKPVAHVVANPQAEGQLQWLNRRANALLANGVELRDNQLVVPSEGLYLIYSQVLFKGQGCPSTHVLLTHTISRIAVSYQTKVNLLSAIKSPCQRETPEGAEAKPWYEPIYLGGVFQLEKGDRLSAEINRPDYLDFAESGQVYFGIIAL

B1: DVD1251 (bispecific antibody, human IgG1, kappa)
heavy: not shown
light: DIQMTQSPSSLSASVGDRVTITCRASQSISNNLNWYQQKPGKAPKLLIYYTSRFHSGVPSRFSGSGSGTDFTFTISSLQPEDIATYYCQQEHTLPYTFGQGTKLEIKRTVAAPDIQMTQSPSSLSASVGDRVTITCRASQGIRIDLGWYQQKPGKAPKRLIYAASTLQSGVPSRFSGSGSGTEFIFTISSLQPEDFASYYCLQHKSYPLTFGGGTKVEIKRTVAAPSVFIFPPSDEQLKSGTASVVCLLNNFYPREAKVQWKVDNALQSGNSQESVTEQDSKDSTYSLSSTLTLSKADYEKHKVYACEVTHQGLSSPVTKSFNRGEC
notes: constant regions from vectors V1/V2; also called DVD1251H; DVD1251L
For the molecule B1, the “N-Terminal VD NGF Inhibition Assay EC50 pM (ERK1/2 phosphorylation, Neuroscreen-1 cells)” value in assay [1] came to 95 pM. Also, in assay [2], the “C-terminal VD TNFα Neutralization Assay EC50 nM (L929 cells)” value was 8.02 nM. For the same molecule, in the assay with Recombinant Human β-NGF [3], the Kd is 0.0139 nM, the koff worked out at 1.17e-05 s⁻¹ and the kon was 842000 M⁻¹ s⁻¹. Moreover, in assay [4], the Kd is 0.0894 nM, the koff came out at 5.73e-05 s⁻¹ and the kon was determined as 641000 M⁻¹ s⁻¹.

B2: DVD1226 (bispecific antibody, human IgG1, kappa)
heavy: not shown
light: DIVMTQSHKFMSTTVGDRVSITCKASQAVSSAVAWYQQKPGQSPKLLIYWASTRHTGVPDRFTGSGSVTDFTLTIHNLQAEDLALYYCQQHYSTPFTFGSGTKLEIKRTVAAPDVQMIQSPSSLSASLGDIVTMTCQASQGTSINLNWFQQKPGKAPKLLIYGSSNLEDGVPSRFSGSRYGTDFTLTISSLEDEDLATYFCLQHSYLPYTFGGGTKLEIKRTVAAPSVFIFPPSDEQLKSGTASVVCLLNNFYPREAKVQWKVDNALQSGNSQESVTEQDSKDSTYSLSSTLTLSKADYEKHKVYACEVTHQGLSSPVTKSFNRGEC
notes: constant regions from vectors V1/V2; also called DVD1226H; DVD1226L
In the case of B2, the “N-terminal VD TNFα Neutralization Assay EC50 nM (L929 cells)” value in assay [2] was 0.0409 nM. Moreover, in the assay with Recombinant Human SOST, the Kd was 2.71 nM, the koff amounted to 0.000199 s⁻¹ and the kon was 73400 M⁻¹ s⁻¹. Also, in assay [4], the Kd is 0.0288 nM, the koff turned out to be 0.000116 s⁻¹ and the kon stood at 4.02e+06 M⁻¹ s⁻¹.

B3: DVD1249 (bispecific antibody, human IgG1, kappa)
heavy: not shown
light: DVQMIQSPSSLSASLGDIVTMTCQASQGTSINLNWFQQKPGKAPKLLIYGSSNLEDGVPSRFSGSRYGTDFTLTISSLEDEDLATYFCLQHSYLPYTFGGGTKLEIKRTVAAPDIQMTQSPSSLSASVGDRVTITCRASQGIRIDLGWYQQKPGKAPKRLIYAASTLQSGVPSRFSGSGSGTEFIFTISSLQPEDFASYYCLQHKSYPLTFGGGTKVEIKRTVAAPSVFIFPPSDEQLKSGTASVVCLLNNFYPREAKVQWKVDNALQSGNSQESVTEQDSKDSTYSLSSTLTLSKADYEKHKVYACEVTHQGLSSPVTKSFNRGEC
notes: constant regions from vectors V1/V2; also called DVD1249H; DVD1249L
In the case of B3, the “C-terminal VD TNFα Neutralization Assay EC50 nM (L929 cells)” value in assay [2] was determined as 5.42 nM. For the same molecule, in the assay with Recombinant Human SOST, the Kd was determined as 0.017 nM, the koff stood at 0.000159 s⁻¹ and the kon came out at 9.42e+06 M⁻¹ s⁻¹. In assay [4], the Kd came out at 0.389 nM, the koff stood at 0.000253 s⁻¹ and the kon was 649000 M⁻¹ s⁻¹.

B4: AB020 (antibody, V domains shown)
VH: QVQLQESGPGLVKPSETLSLTCTVSGFSLIGYDLNWIRQPPGKGLEWIGIIWGDGTTDYNSAVKSRVTISKDTSKNQFSLKLSSVTAADTAVYYCARGGYWYATSYYFDYWGQGTLVTVSS
VL: DIQMTQSPSSLSASVGDRVTITCRASQSISNNLNWYQQKPGKAPKLLIYYTSRFHSGVPSRFSGSGSGTDFTFTISSLQPEDIATYYCQQEHTLPYTFGQGTKLEIKR
notes: Parent anti-NGF antibody; also called NGF; AB020VH
Turning to B4, the “NGF Inhibition Assay EC50 pM (ERK1/2 phosphorylation, Neuroscreen-1 cells)” value in assay [1] was 53 pM. In the assay with Recombinant Human β-NGF [5], the Kd worked out at 6.73 pM. Also, in the assay with Recombinant Human β-NGF [3], the koff stood at 4.08e-06 s⁻¹ and the kon is 606000 M⁻¹ s⁻¹.

B5: DVD1233 (bispecific antibody, human IgG1, kappa)
heavy: not shown
light: DIQMTQSPSSLSASVGDRVTITCRASQSISNNLNWYQQKPGKAPKLLIYYTSRFHSGVPSRFSGSGSGTDFTFTISSLQPEDIATYYCQQEHTLPYTFGQGTKLEIKRTVAAPDIVMTQSHKFMSTTVGDRVSITCKASQAVSSAVAWYQQKPGQSPKLLIYWASTRHTGVPDRFTGSGSVTDFTLTIHNLQAEDLALYYCQQHYSTPFTFGSGTKLEIKRTVAAPSVFIFPPSDEQLKSGTASVVCLLNNFYPREAKVQWKVDNALQSGNSQESVTEQDSKDSTYSLSSTLTLSKADYEKHKVYACEVTHQGLSSPVTKSFNRGEC
notes: constant regions from vectors V1/V2; also called DVD1233H; DVD1233L
In the case of B5, the “N-Terminal VD NGF Inhibition Assay EC50 pM (ERK1/2 phosphorylation, Neuroscreen-1 cells)” value in assay [1] turned out to be 62 pM. Besides, in assay [2], the “C-terminal VD TNFα Neutralization Assay EC50 nM (L929 cells)” value came to 42.4 nM. Further, in the assay with Recombinant Human β-NGF [3], the Kd worked out at 0.0217 nM, the koff was 1.82e-05 s⁻¹ and the kon turned out to be 840000 M⁻¹ s⁻¹. Further, in assay [4], the Kd stood at 0.115 nM, the koff came out at 2.82e-05 s⁻¹ and the association rate constant (kon) was 244000 M⁻¹ s⁻¹.

For orientation: Kd means a measure of binding affinity in units of concentration. Usually koff stands for the rate constant with which the complex falls apart. The kon is a measure of how fast the partners come together.
